# Experimental data: the supplement of paper PMC10567573
# B1: C2CD2L (parent)
# chain: EPAGSLRELGVWRSLLRLRATRAG
# B2: FAM164C (parent)
# chain: YPHCTGISQQDPESDSQGQGNGLF
# Variants of: B1
# Assay: protein stability index of a GFP-peptide fusion (GPS, HEK-293T) (PSI 1-6); higher = more stable
# Conditions: c terminus: a fixed tail appended
# 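Also: lentivirally expressed fusions sorted by FACS into six bins by GFP to DsRed ratio, PSI derived from sequencing read proportions per bin multiplied by bin number.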
row,Variant,protein stability index
1,R7L,2.44
2,R7F,1.14
3,R7E,2.29
4,R7I,1.64
5,R7H,2.67
6,R7K,2.07
7,R7C,1.74
8,R7M,2.92
9,R7G,3.07
10,R7A,3.16
11,R7P,3.35
12,R7W,1.75
13,L6I,2.2
14,L6A,3.35
15,L6T,2.83
16,L6C,2.17
17,L6M,2.45
18,L6W,2.39
19,L6K,2.36
20,L6S,2.95
21,L9I,1.71
22,L9E,3.3

row,Variant,protein stability index
1,L9W,2.37
2,L9C,3.04
3,L9Q,2.77
4,L9S,3.16
5,L9G,3.69
6,L9F,3.97
7,L9M,2.07
8,L9Y,4.48
9,L9P,3.7
10,L9T,2.92
11,P2V,1.82
12,P2E,2.5
13,P2H,1.42
14,P2T,1.93
15,P2N,1.5
16,P2G,1.1
17,P2Y,2.04
18,P2A,2.08
19,P2R,2.41
20,V11N,3.27
21,V11A,2.61
22,V11L,2.17

row,Variant,protein stability index
1,V11I,2.5
2,V11D,3.74
3,V11H,3.11
4,V11R,2.25
5,V11K,3.37
6,G4Y,3.48
7,G4F,2.49
8,G4S,2.4
9,G4Q,3.42
10,G4N,1.98
11,G4L,1.97
12,G4M,2.39
13,G4T,2.4
14,G4D,3.19
15,G4E,3.52
16,G4P,3.02
17,G4C,2.04
18,G4I,2.07
19,S5F,1.21
20,S5R,2.03
21,S5E,3.05
22,S5C,2.36

row,Variant,protein stability index
1,S5W,1.82
2,S5V,2.04
3,S5D,2.56
4,S5A,2.31
5,S5Y,2.73
6,A3P,1.63
7,A3K,2.04
8,A3E,2.65
9,A3M,2.19
10,A3V,2.77
11,A3L,1.59
12,A3I,2.84
13,A3W,1.97
14,A3T,2.93
15,A3F,1.47
16,E8I,1.57
17,E8F,2.9
18,E8D,3.43
19,E8N,3
20,E8M,1.73
21,E8R,2.06
22,E8P,2.93

row,Variant,protein stability index
1,E8T,2.1
2,E8S,2.49
3,E1N,2.09
4,E1R,2.25
5,E1P,2.25
6,E1I,1.91
7,E1M,1.91
8,E1T,1.84
9,E1L,2.31
10,E1F,2.41
11,G10T,2.9
12,G10N,4.3
13,G10S,3.18
14,G10L,2.02
15,G10H,3.78
16,G10D,2.99
17,G10M,1.99
18,G10I,1.86
19,G10W,1.67

# Variants of: B2
# Assay: as above
# Conditions: c terminus: a fixed tail appended
row,Variant,protein stability index
1,E13D,3.87
2,E13I,3.21
3,E13Y,2.97
4,E13S,3.08
5,E13T,3.15
6,E13R,2.93
7,E13C,3.34
8,E13G,3.38
9,E13K,3.28
10,E13N,3.23
11,E13L,2.81
12,E13H,3.4
13,E13V,3.66
14,E13F,2.44
15,E13Q,3.31
16,E13W,1.9
17,E13M,3.21
18,E13P,3.51
19,Q17C,3.39
20,Q17V,3.4
21,Q17R,3.71
22,Q17N,4.14
23,Q17P,3.6
24,Q17K,3.51
25,Q17M,3.8
26,Q17E,4.4

row,Variant,protein stability index
1,Q17W,2.97
2,Q17L,2.96
3,Q17Y,3.02
4,Q17A,3.88
5,Q17I,3.42
6,Q17G,3.74
7,Q17D,3.26
8,Q17F,2.81
9,Q17S,3.79
10,Q17H,3.36
11,Q17T,3.64
12,L23R,4.63
13,L23S,4.6
14,L23M,4.21
15,L23E,5.27
16,L23P,4.48
17,L23N,4.38
18,L23K,4.76
19,L23Y,4.26
20,L23V,3.87
21,L23H,4.89
22,L23C,4.62
23,L23Q,4.75
24,L23F,3.15
25,L23I,3.97
26,L23T,4.71

row,Variant,protein stability index
1,L23D,4.93
2,L23G,4.99
3,L23A,4.35
4,L23W,2.97
5,N21W,2.35
6,N21A,3.83
7,N21L,3.41
8,N21F,2.62
9,N21Q,4.07
10,N21Y,3.02
11,N21D,4.5
12,N21K,3.77
13,N21C,3.65
14,N21M,3.35
15,N21V,3.54
16,N21I,3.25
17,N21S,3.78
18,N21P,3.99
19,N21R,3.55
20,N21G,3.5
21,N21T,4.04
22,N21H,3.75
23,N21E,4.86
24,G20C,3.57
25,G20H,3.08
26,G20P,3.59

row,Variant,protein stability index
1,G20I,3.02
2,G20F,2.56
3,G20S,3.79
4,G20D,4.39
5,G20Q,3.79
6,G20M,3.9
7,G20V,3.44
8,G20R,3.65
9,G20Y,2.03
10,G20T,3.33
11,G20K,3.66
12,G20W,2.35
13,G20L,3.11
14,G20A,3.12
15,G20E,4.33
16,G20N,3.48
17,S16A,3.71
18,S16Q,3.8
19,S16G,3.71
20,S16M,3.62
21,S16C,3.35
22,S16P,3.92
23,S16R,3.31
24,S16D,4.24
25,S16T,3.73
26,S16V,3.69

row,Variant,protein stability index
1,S16I,3.1
2,S16K,3.61
3,S16L,2.74
4,S16N,4.18
5,S16H,3.78
6,S16F,3.13
7,S16W,2.76
8,S16E,4.16
9,S16Y,3.44
10,S14E,3.84
11,S14C,3.54
12,S14I,3.25
13,S14D,4.2
14,S14V,4.3
15,S14G,3.74
16,S14R,3.79
17,S14W,3.13
18,S14M,3.4
19,S14K,4.23
20,S14L,3.77
21,S14N,3.89
22,S14H,3.73
23,S14Q,3.93
24,S14F,2.73
25,S14P,4.28
26,S14T,3.71

row,Variant,protein stability index
1,S14Y,3.27
2,S14A,3.86
3,Q19W,2.75
4,Q19C,3.24
5,Q19D,4.1
6,Q19H,3.64
7,Q19S,3.9
8,Q19R,3.51
9,Q19L,3.3
10,Q19F,2.88
11,Q19N,3.66
12,Q19I,3.26
13,Q19P,3.86
14,Q19G,4.21
15,Q19E,4.21
16,Q19V,3.52
17,Q19A,3.87
18,Q19T,3.81
19,Q19K,3.85
20,Q19Y,3.36
21,Q19M,3.22
22,G22M,2.96
23,G22D,4.03
24,G22A,3.78
25,G22Q,3.44
26,G22E,3.76

row,Variant,protein stability index
1,G22I,3.22
2,G22K,3.96
3,G22H,2.97
4,G22W,2.04
5,G22R,3.78
6,G22P,3.95
7,G22F,2.94
8,G22S,3.57
9,G22T,3.65
10,G22C,3.16
11,G22Y,3.03
12,G22L,2.87
13,G22N,2.91
14,G22V,3.73
15,G18L,3.42
16,G18A,3.83
17,G18E,4.19
18,G18D,3.67
19,G18Y,3
20,G18P,3.83
21,G18V,3.32
22,G18W,2.62
23,G18Q,3.72
24,G18C,3.9
25,G18H,3.74
26,G18M,3.19

row,Variant,protein stability index
1,G18K,3.5
2,G18F,2.54
3,G18S,3.77
4,G18N,3.58
5,G18I,3.32
6,G18T,3.41
7,G18R,3.83
8,D15I,2.9
9,D15Y,3.23
10,D15L,2.8
11,D15E,4.07
12,D15Q,3.44
13,D15V,3.51
14,D15K,3.64
15,D15M,2.9
16,D15N,3.84
17,D15G,2.94
18,D15A,3.53
19,D15R,3.54
20,D15W,2.63
21,D15H,3.66
22,D15T,2.95
23,D15F,2.94
24,D15C,2.79
25,D15P,3.46
26,D15S,3.73

row,Variant,protein stability index
1,F24G,4.82
2,F24W,2.23
3,F24P,4.64
4,F24N,5.06
5,F24D,4.44
6,F24R,5.01
7,F24L,4.77
8,F24S,5.04
9,F24T,5.13
10,F24H,4.81
11,F24A,3.89
12,F24Y,3.87
13,F24Q,5
14,F24C,4.73
15,F24V,4.41
16,F24I,4.82
17,F24M,4.55
18,F24K,5.12
19,F24E,5
